Assay: soluble on expression in E. coli; label from the status in PepcDB or PDB records

Sequence | soluble on expression in E. coli
MREQSGINGHEQLATFIDRTDRVLNLVDGFMPETAWLSDIETLTYLHATVSTHRHQVRVPETPMHLDAILADQVLTGGLEPRLGQAHLRTLTIMGFPSQTWPGLLDDLNRLAFDYRWVTRAICLDKTDAAKVLGRIRRQWFAKRKSIAAMLKEIMTNEASALMDSDAANKAVDADMALQELGSDLVGAAYVTATVTIWNDDPRIADERLRLVEKVIQGRDFTCMVERVNAVEAWLGSLPGHVYANVRQPPVSTLNLAHMMPFSAVWAGPERDEHFDAPPLFLAKTEGSTPFRFSLHVGDVGHTLVVGPTGAGKSVLLALMALQFRRYARSQIFAFDFGGSIRAAALAMRGDWHDLGGSLAEDASEPVALQPLAGIDAEEERAWAAEWVAAILAREKVEITPDVKEHVWSALNNLASAPKSERTLTGLSVLLQSQALKQALKPYCVGGPWGRLLDAETERVGSADVLAFETEGLIGTGAAAAVLAYLFHRIEHRLDGRPTLLIVDEGWLALDDEGFASQLREWLKTLRKKNASVIFATQSLADIDGSAIAPAIIESCPTRLFLPNERALEPQIATIYERFGLNDRQIEILSRATPKRDYYCQSRRGNRLFELGLGEVALAFTAASSKGDQILIARLMAEHGPTGFAKAWLEARGVAWATDLIITPQKEKLPLEHHHHHH | soluble
SMQQRKVLTLEKEDNQTFGFEIQTYGLHHREEQRVEMVTFVCRVHESSPAQLAGLTPGDTIASVNGLNVEGIRHREIVDIIKASGNVLRLETLYSSTL | soluble
MLLLTRSPTAWHRLSQLKPPVLPGTLGGQALHLRSWLLSRQGPAETGGQGQPQGPGLRTRLLITGLFGAGLGGAWLALRAEKERLQQQKRTEALRQAAVGQGDFHLLDHRGRARCKADFRGQWVLMYFGFTHCPDICPDELEKLVQVVRQLEAEPGLPPVQPVFITVDPERDDVEAMARYVQDFHPRLLGLTGSTKQVAQASHSYRVYYNAGPKDEDQDYIVDHSIAIYLLNPDGLFTDYYGRSRSAEQISDSVRRHMAAFRSVLS | not soluble
MAHHHHHHMHNSVPASNTCSPFREETVSKRGKRSRGTGGDDKITRGTCSQPFSVITLPPGKLLEWLVCSPCRVYDVNLPRSRNNDNNISSLQCAVLPNFFVEYGGRSYSCVAKVCKPQLRKVLLRALAAVRQEMGSVDDIPHDSLLVVAVSPINAFSSECIHDASRTAMPRAREGCKIVGLCVARELSAPHRMHCESNWSHEKSEASGVGAAVQEGLGDCWEEDATRVGGTNNVRKAFCGVQLVWVADCYRRHGVAKVLVDTARRHISYGFEVPVERVAFSEPTSLGKLFAKSYSGRPDFLIF | not soluble
MGSDKIHHHHHHMKAVLVEQPGSSEQLKVVEREIPKIKEGWSLVKIKGFGINRSEIFTRKGYSPSVVFPRVLGIECVGIIEETSDKNHFFHGQKVVSIMGEMGRAFDGSYAEYVLLPNEQIYPIKTNLTWDKLAAAPESYYTAYGAYKNLKLKKQDLVLVRAGASGVALAFLNLLKASLPEIKVTASVRSLAKKQQLLDSGYDEVIIDRDSCLQTKQKFDKVLDLIGPACIDDTLNHVADGGIICLVGLLGGQWTLDNFDPIMALQNNIYLTTFYSGNINLNKLQELFDFIAKYAVPIKVEKIFTIDHIKEAHDYLESPQAFGKVIVLNGVA | not soluble
MTQNTKLRPITPEFDPWEAYMDVDQYGDMQLTNVEFTTTTLCNMRCEHCAVGYTLQPKDPNALPIDLLLKRLEEIPRLRSISITGGEPMLSLKSVKEYVVPLLKYAHERGVRTQINSNLTLDIERYEWIIPYLDVLHISHNWGTVEDFAEIGFA | not soluble
MRGLKTFSILGLIVALLLVAACGNTDNSSKKESSTKDTISVKDENGTVKVPKDAKRIVVLEYSFADALAALDVKPVGIADDGKKKRIIKPVREKIGDYTSVGTRKQPNLEEISKLKPDLIIADSSRHKGINKELNKIAPTLSLKSFDGDYKQNINSFKTIAKALNKEKEGEKRLAEHDKLINKYKDEIKFDRNQKVLPAVVAKAGLLAHPNYSYVGQFLNELGFKNALSDDVTKGLSKYLKGPYLQLDTEHLADLNPERMIIMTDHAKKDSAEFKKLQEDATWKKLNAVKNNRVDIVDRDVWARSRGLISSEEMAKELVELSKKEQK | not soluble
MPRLFLTSDLDSFPVTPQGCSVTLACGVRLQFPAGATATPITIRYRLLLPEPGLVPLGPHDALLSHVLELQPHGVAFQQDVGLWLLFTPPQARRCREVVVRTRNDNSWGDLETYLEEEAPQRLWAHCQVPHFSWFLVVSRPVSNACLVPPEGTLLCSSGHPGVKVIFPPGATEEPRRVSMQVVRMAGRELQALLGEPEAAVSPLLCLSQSGPPSFLQPVTVQLPLPSGITGLSLDRSRLHLLYWAPPAATWDDITAQVVLELTHLYARFQVTHFSWYWLWYTTKNCVGGLARKAWERLRLHRVNLIALQRRRDPEQVLLQCLPRNKVDATLRRLLERYRGPEPSDTVEMFEGEEFFAAFERGIDVDADRPDCVEGRICFVFYSHLKNVKEVYVTTTLDREAQAVRGQVSFYRGAVPVRVPEEAEAARQRKGADALWMATLPIKLPRLRGSEGPRRGAGLSLAPLNLGDAETGFLTQSNLLSVAGRLGLDWPAVALHLGVSYREVQRIRHEFRDDLDEQIRHMLFSWAERQAGQPGAVGLLVQALEQSDRQDVAEEVRAVLELGRRKYQDSIRRMGLAPKDPALPGSSAPQPPEPAQA | soluble
MSLELKNKKIVVTGGTSGIGLAFAKKLAAIDNQIIIGSRSKEKITEVVKDNKNISGYQVDVSDQESVERFYKQTISEFKNIDIVINSAGIMRHYNLLDEKTTSQKLQAEIQTNLIGTINIDKIFLPILRKQAESMIVNISSGLANLSSAAHPIYSATKAGVHMFTDALREQLHFAGEDHIHIVELVPPLVAETNLEKDVNSQNTPLNIKLSDLINEAIQGIEENSIRINAGMAKEMRKMGQTDPDKNEREMATMMIPMYFPDGLKEGHHHHHH | not soluble
SFAAEITLTTPDNFALKADYYPSKNSVKPANNRAVLMLHQCNYNRTMYNNIGAQLAQQSIHALSLDFRGFGESISSEFNVADVRKLPQAERGKAWSNMSSHWPEDVQLAFDYLKEKVGNNGKVGIIGASCGGSQAINLAEKENISAISFFSSSQRDENIARYGKTLVDTPTLIIASEDDGRTFTSAQQLFSTAKNPSSKMISYKGSMHGYPLLASDKALETTIVTWFSNEL | not soluble
MKKVALVTGAGQGIGKAIALRLVKDGFAVAIADYNDATAKAVASEINQAGGHAVAVKVDVSDRDQVFAAVEQARKTLGGFDVIVNNAGVAPSTPIESITPEIVDKVYNINVKGVIWGIQAAVEAFKKEGHGGKIINACSQAGHVGNPELAVYSSSKFAVRGLTQTAARDLAPLGITVNGYCPGIVKTPMWAEIDRQVSEAAGKPLGYGTAEFAKRITLGRLSEPEDVAACVSYLASPDSDYMTGQSLLIDGGMVFN | soluble
MKQLYATIRFNGYEEAADKGDLAVHKLVAAALDDAEASLKDLFAQQIFGDGTGNSGKDLTGLKAYVDDGTAVAVYGGIDRATNPWWKANVKKSANNKVLDIKQMREVFAKCSRGGMENKPDFIVTDLNTWLQYAELVDGKTTIQQPLGKVAEEFANLGFAQLSFMGIPVVYDEYCPAYTMYFINSNTFQLYGKPGRMFTTSEIVKIPDEDSKVGQIFFAGEFVGTEPRANGRLDLTVS | not soluble
MPSGVDGVGLLVRWLIEGSRGGVTRARILMLLRERPRNAHQLSQELGLNYRTVLHHLEVLARHGLIARLYEGYGAPYALTNLAERHWSVIEDSIRRVGVRL | not soluble
MRTELLSKLYDDFGIDQLPHTQHGVTSDRLGKLYEKYILDIFKDIESLKKYNTNAFPQEKDISSKLLKALNLDLDNIIDVSSSDTDLGRTIAGGSPKTDATIRFTFHNQSSRLVPLNIKHSSKKKVSIAEYDVETICTGVGISDGELKELIRKHQNDQSAKLFTPVQKQRLTELLEPYRERFIRWCVTLRAEKSEGNILHPDLLIRFQVIDREYVDVTIKNIDDYVSDRIAEGSKARKPGFGTGLNWTYASGSKAKKMQFKG | soluble
ELTLRIAYNLFTQRPKEEYDDFARWITMTGPGKGSDVYKMNGAGEMLVFSAADFEDFLEPRPDLMPAMEEELKKVVALLVEHRWPFRLHATYDESISRFLAVFEAVDREIPFRGLRWFFDHAETISNRNLERVRRLGGGIAIQDRMAFQGEYFVARYGAEAAKRTPPIARMLAMGIPVGAGTDATRVSSYNPWLSLYWLVSGKTVGGLPLYDDANRLDRTAALRLYTEGSSWFSGDNGSKGALIAGRHADLAVLSADYFAVPEARIKDIESVLTIMGGKIVHASDEFAPLAPPLPPVSPDWSPVASYGGYHGNAAVSTGLRREPCVCHSHSPAWSGPDPRFWGIGCDCFA | not soluble
